The record followed here is publication doi:10.1101/528240 (bioRxiv, 2019).

Data set [1] addresses GII.4 CHDC-1974 norovirus major capsid protein VP1, assembled as virus-like particles (VLPs) (human norovirus GII.4 (CHDC-1974)). The data set is described as follows: cryo-EM structure.
The data set “cryo-EM structure” deals with the molecule itself. The data set is described as follows: cryo-EM structure.

The term stoichiometry N denotes a count of units in the complex or per binding partner.

“GII.4 CHDC-1974 norovirus major capsid protein VP1, assembled as virus-like particles (VLPs) (natural protein)” gave a stoichiometry N in data set [1] of 240.

B1: GII.4 NSW-2012 norovirus major capsid protein VP1, assembled as virus-like particles (VLPs) (natural protein, human norovirus GII.4 (NSW-2012), UniProt K4LM89 1-540, looked up)
chain: MKMASSDANPSDGSAANLVPEVNNEVMALEPVVGAAIAAPVAGQQNVIDPWIRNNFVQAPGGEFTVSPRNAPGEILWSAPLGPDLNPYLSHLARMYNGYAGGFEVQVILAGNAFTAGKVIFAAVPPNFPTEGLSPSQVTMFPHIVVDVRQLEPVLIPLPDVRNNFYHYNQSNDPTIKLIAMLYTPLRANNAGDDVFTVSCRVLTRPSPDFDFIFLVPPTVESRTKPFSVPVLTVEEMTNSRFPIPLEKLFTGPSSAFVVQPQNGRCTTDGVLLGTTQLSPVNICTFRGDVTHITGSRNYTMNLASQNWNDYDPTEEIPAPLGTPDFVGKIQGVLTQTTRTDGSTRGHKATVYTGSADFAPKLGRVQFETDTDRDFEANQNTKFTPVGVIQDGGTTHRNEPQQWVLPSYSGRNTHNVHLAPAVAPTFPGEQLLFFRSTMPGCSGYPNMDLDCLLPQEWVQYFYQEAAPAQSDVALLRFVNPDTGRVLFECKLHKSGYVTVAHTGQHDLVIPPNGYFRFDSWVNQFYTLAPMGNGTGRRRAV
Consider B1, for which the “stoichiometry N” value in the data set “cryo-EM structure” came out at 240.
